Assay results reported in the supplement of paper PMC10219994.
± gives the standard deviation of the averaged measurements.

B1: library; a variant is named by its letters at N, in order (parent)
chain: GAGACCGCAACTGAAAAGTTGTGGNNNNNATAGTGAGTCGCTGCCTGCAAAGACACAACT

Variants of: B1
Assay: ligation selection enrichment (abundance after / before one-round selection) (fold); higher = more template-directed ligation activity
Settings: with T7Psub CACGGAUGCUAAUACGACUCACUAUA; MgCl2 25 mM; 42 °C; 4 h; pH 8.5
Protocol: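 Lib-N5 ligase ribozyme library: five randomized core nucleotides (including the GGA motif of N8-1) within the fixed N8-1 ribozyme flanks, transcribed by T7 RNA polymerase with a 5'-triphosphate. The library (0.75 uM) was reacted with substrate T7Psub (6 uM) in 50 mM EPPS pH 8.5 with 25 mM MgCl2 at 42 C for 4 h. Ligated products were PAGE-purified, reverse transcribed and MiSeq sequenced; enrichment = abundance after selection / abundance before selection, with two independent replicates. The full transcript is built from the printed template flanks.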

Compared with GAGACCGCAACTGAAAAGTTGTGGTTTCAATAGTGAGTCGCTGCCTGCAAAGACACAACT, GAGACCGCAACTGAAAAGTTGTGGCTGCCATAGTGAGTCGCTGCCTGCAAAGACACAACT is lower in ligation selection enrichment: 0.268 ± 0.026 for the first, 0.138 ± 0.05 for the second.

First: GAGACCGCAACTGAAAAGTTGTGGAGGAAATAGTGAGTCGCTGCCTGCAAAGACACAACT
Second: GAGACCGCAACTGAAAAGTTGTGGAGGATATAGTGAGTCGCTGCCTGCAAAGACACAACT
The ligation selection enrichment of the first is lower: 2.74 ± 0.034 for the first, 95.7 ± 0.79 for the second.

Going from GAGACCGCAACTGAAAAGTTGTGGTGAGTATAGTGAGTCGCTGCCTGCAAAGACACAACT to GAGACCGCAACTGAAAAGTTGTGGCCAGTATAGTGAGTCGCTGCCTGCAAAGACACAACT, the ligation selection enrichment falls from 0.221 ± 0.024 to 0.107 ± 0.041.

Going from GAGACCGCAACTGAAAAGTTGTGGTATGCATAGTGAGTCGCTGCCTGCAAAGACACAACT to GAGACCGCAACTGAAAAGTTGTGGCAGAAATAGTGAGTCGCTGCCTGCAAAGACACAACT, the ligation selection enrichment rises from 0.29 ± 0.026 to 0.343 ± 0.0039.

Going from GAGACCGCAACTGAAAAGTTGTGGTATCAATAGTGAGTCGCTGCCTGCAAAGACACAACT to GAGACCGCAACTGAAAAGTTGTGGTCCACATAGTGAGTCGCTGCCTGCAAAGACACAACT, the ligation selection enrichment falls from 0.404 ± 0.031 to 0.118 ± 0.043.

Compared with GAGACCGCAACTGAAAAGTTGTGGTCCATATAGTGAGTCGCTGCCTGCAAAGACACAACT, GAGACCGCAACTGAAAAGTTGTGGTCCAGATAGTGAGTCGCTGCCTGCAAAGACACAACT is lower in ligation selection enrichment: 0.303 ± 0.096 for the first, 0.128 ± 0.027 for the second.

First: GAGACCGCAACTGAAAAGTTGTGGAGTTGATAGTGAGTCGCTGCCTGCAAAGACACAACT
Second: GAGACCGCAACTGAAAAGTTGTGGACCAGATAGTGAGTCGCTGCCTGCAAAGACACAACT
The ligation selection enrichment of the first is higher: 3.78 ± 0.71 for the first, 0.207 ± 0.033 for the second.

GAGACCGCAACTGAAAAGTTGTGGGATCCATAGTGAGTCGCTGCCTGCAAAGACACAACT and GAGACCGCAACTGAAAAGTTGTGGCTTGCATAGTGAGTCGCTGCCTGCAAAGACACAACT are within error of each other in ligation selection enrichment: 0.276 ± 0.057 for the first, 0.446 ± 0.26 for the second.

GAGACCGCAACTGAAAAGTTGTGGATTGTATAGTGAGTCGCTGCCTGCAAAGACACAACT and GAGACCGCAACTGAAAAGTTGTGGTCACTATAGTGAGTCGCTGCCTGCAAAGACACAACT are within error of each other in ligation selection enrichment: 0.543 ± 0.093 for the first, 0.427 ± 0.28 for the second.

GAGACCGCAACTGAAAAGTTGTGGGGGGGATAGTGAGTCGCTGCCTGCAAAGACACAACT and GAGACCGCAACTGAAAAGTTGTGGTCCCTATAGTGAGTCGCTGCCTGCAAAGACACAACT are within error of each other in ligation selection enrichment: 0.405 ± 0.028 for the first, 0.324 ± 0.076 for the second.

First: GAGACCGCAACTGAAAAGTTGTGGTGTCGATAGTGAGTCGCTGCCTGCAAAGACACAACT
Second: GAGACCGCAACTGAAAAGTTGTGGTGGCAATAGTGAGTCGCTGCCTGCAAAGACACAACT
The ligation selection enrichment of the first is higher: 0.653 ± 0.0083 for the first, 0.252 ± 0.025 for the second.

First: GAGACCGCAACTGAAAAGTTGTGGCAATGATAGTGAGTCGCTGCCTGCAAAGACACAACT
Second: GAGACCGCAACTGAAAAGTTGTGGATTTTATAGTGAGTCGCTGCCTGCAAAGACACAACT
The ligation selection enrichment of the first is lower: 0.249 ± 0.03 for the first, 0.4707 ± 0.0023 for the second.

GAGACCGCAACTGAAAAGTTGTGGTAAAAATAGTGAGTCGCTGCCTGCAAAGACACAACT and GAGACCGCAACTGAAAAGTTGTGGCCTATATAGTGAGTCGCTGCCTGCAAAGACACAACT are within error of each other in ligation selection enrichment: 0.145 ± 0.025 for the first, 0.149 ± 0.059 for the second.

First: GAGACCGCAACTGAAAAGTTGTGGTCTATATAGTGAGTCGCTGCCTGCAAAGACACAACT
Second: GAGACCGCAACTGAAAAGTTGTGGGGTACATAGTGAGTCGCTGCCTGCAAAGACACAACT
The ligation selection enrichment of the first is lower: 0.102 ± 0.035 for the first, 0.479 ± 0.053 for the second.

Compared with GAGACCGCAACTGAAAAGTTGTGGTGTGTATAGTGAGTCGCTGCCTGCAAAGACACAACT, GAGACCGCAACTGAAAAGTTGTGGTGTGAATAGTGAGTCGCTGCCTGCAAAGACACAACT is higher in ligation selection enrichment: 0.102 ± 0.061 for the first, 0.629 ± 0.018 for the second.

GAGACCGCAACTGAAAAGTTGTGGATAAAATAGTGAGTCGCTGCCTGCAAAGACACAACT and GAGACCGCAACTGAAAAGTTGTGGATAAGATAGTGAGTCGCTGCCTGCAAAGACACAACT are within error of each other in ligation selection enrichment: 0.228 ± 0.05 for the first, 0.373 ± 0.099 for the second.

GAGACCGCAACTGAAAAGTTGTGGAATAGATAGTGAGTCGCTGCCTGCAAAGACACAACT and GAGACCGCAACTGAAAAGTTGTGGTGAAAATAGTGAGTCGCTGCCTGCAAAGACACAACT are within error of each other in ligation selection enrichment: 0.39 ± 0.091 for the first, 0.326 ± 0.022 for the second.

Compared with GAGACCGCAACTGAAAAGTTGTGGAACGCATAGTGAGTCGCTGCCTGCAAAGACACAACT, GAGACCGCAACTGAAAAGTTGTGGACGCGATAGTGAGTCGCTGCCTGCAAAGACACAACT is higher in ligation selection enrichment: 0.197 ± 0.017 for the first, 0.622 ± 0.021 for the second.

Going from GAGACCGCAACTGAAAAGTTGTGGCGCCCATAGTGAGTCGCTGCCTGCAAAGACACAACT to GAGACCGCAACTGAAAAGTTGTGGTTGCTATAGTGAGTCGCTGCCTGCAAAGACACAACT, the ligation selection enrichment rises from 0.161 ± 0.004 to 0.947 ± 0.32.

Going from GAGACCGCAACTGAAAAGTTGTGGGTGGAATAGTGAGTCGCTGCCTGCAAAGACACAACT to GAGACCGCAACTGAAAAGTTGTGGGCTCGATAGTGAGTCGCTGCCTGCAAAGACACAACT, the ligation selection enrichment falls from 1.76 ± 0.068 to 0.533 ± 0.037.

Compared with GAGACCGCAACTGAAAAGTTGTGGTTACTATAGTGAGTCGCTGCCTGCAAAGACACAACT, GAGACCGCAACTGAAAAGTTGTGGGGTCGATAGTGAGTCGCTGCCTGCAAAGACACAACT is higher in ligation selection enrichment: 0.603 ± 0.42 for the first, 2.83 ± 0.25 for the second.

Going from GAGACCGCAACTGAAAAGTTGTGGTACATATAGTGAGTCGCTGCCTGCAAAGACACAACT to GAGACCGCAACTGAAAAGTTGTGGCTAGAATAGTGAGTCGCTGCCTGCAAAGACACAACT, the ligation selection enrichment falls from 0.578 ± 0.12 to 0.263 ± 0.038.

Variant GAGACCGCAACTGAAAAGTTGTGGTCAGTATAGTGAGTCGCTGCCTGCAAAGACACAACT has a ligation selection enrichment of 0.161 ± 0.087.
